We go through 45 variants from the supplement of paper PMC12783771.

Sequences and labels used below:
B1: library; numbered along this chain (parent)
chain: MNIQIGELAKRTACPVVTIRFYEQEGLLPPPGRSRGNFRLYGEEHVERLQFIRHCRSLDMPLSDVRTLLSYRKRPDQDCGEVNMLLDEHIRQVESRIGALLELKHHLVELREACSGARPAQSCGILQGLSDCVCDTRGTTAHPSD

± gives the standard deviation of the averaged measurements.

Variants of B1 are the subject of series [1]. Kind of series: sfGFP reporter fluorescence (15 h) (µM FITC); higher = higher leak. The note with it: library round: Round 0; ligand: none. The procedure, abridged: (§1)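 PCR-made linear PbrR templates (Echo-normalized to 5 nM) were expressed in BL21 Star (DE3) extract (PANOx-SP) with pPbrR-sfGFP reporter plasmid and 30 μg/mL GamS. Reactions were 1 μL, Echo-assembled, with 1 µM lead chloride, 30 µM zinc acetate or no metal, incubated 15 hr at 30 °C. Endpoint sfGFP fluorescence (485/528 nm, Synergy Neo2) was converted to µM FITC via standard curves in 50 mM sodium borate pH 8.5. Up to three biological replicates.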

In series [2] the parent is B1. The experiment in a line: sfGFP reporter fluorescence (15 h) (µM FITC); higher = stronger transcriptional activation. The note with it: library round: Round 0. The procedure, abridged:
as §1

N83F: the sfGFP reporter fluorescence in series [1] is 0.0588 ± 0.00078; in series [2] (ligand: 1 µM Pb) it was 0.07275 ± 0.00026; in series [2] (ligand: 30 µM Zn) it was 0.05882 ± 0.00026.
For N83V, in that order: 0.0577 ± 0.0034, 0.07623 ± 0.00052 and 0.0588 ± 0.0013.
The matching figures for H89V: 0.0592 ± 0.0034, 0.0575 ± 0.0021 and 0.05681 ± 0.00052.
For E7A, in that order: 0.0552 ± 0.0018, 0.0671 ± 0.001 and 1.07 ± 0.011.
In the case of E7G, the sfGFP reporter fluorescence in series [1] amounted to 0.05882 ± 0.00026; in series [2] (ligand: 1 µM Pb) it was 0.0755 ± 0.0042; in series [2] (ligand: 30 µM Zn), 0.626 ± 0.02.
The matching figures for E7R: 0.06395 ± 0.00026, 0.102 ± 0.0054 and 1.25 ± 0.16.
For the variant L62Q, the sfGFP reporter fluorescence was determined as 0.0597 ± 0.001 in series [1], 0.0608 ± 0.001 in series [2] (ligand: 1 µM Pb) and 0.0819 ± 0.0018 in series [2] (ligand: 30 µM Zn).
For L62H, in that order: 0.06285 ± 0.00026, 0.0638 ± 0.001 and 0.0918 ± 0.0049.
For L62N, in that order: 0.061 ± 0.00078, 0.0632 ± 0.00078 and 0.08008 ± 0.00026.
Regarding D64K G128I, the sfGFP reporter fluorescence in series [1] worked out at 0.371 ± 0.021; in series [2] (ligand: 1 µM Pb), 1.32 ± 0.067; in series [2] (ligand: 30 µM Zn), 4.45 ± 0.14.
On to R20S, for which the sfGFP reporter fluorescence amounted to 0.0634 ± 0.0021 in series [1], 0.061 ± 0.0023 in series [2] (ligand: 1 µM Pb) and 0.063 in series [2] (ligand: 30 µM Zn).
The matching figures for L126V: 0.0555 ± 0.0013, 0.0581 ± 0.00078 and 0.0586.
Take L126K: the figures for the sfGFP reporter fluorescence in series [1], in series [2] (ligand: 1 µM Pb) and in series [2] (ligand: 30 µM Zn) were 0.0597 ± 0.0031, 0.05919 ± 0.00026 and 0.0564 ± 0.001, respectively.
For L126I, in that order: 0.0542 ± 0.001, 0.0568 ± 0.0015 and 0.238 ± 0.012.
For the variant L107C G128M, the sfGFP reporter fluorescence in series [1] worked out at 3.17 ± 0.33; in series [2] (ligand: 1 µM Pb), 3.98 ± 0.14; in series [2] (ligand: 30 µM Zn), 4.14 ± 0.45.
The matching figures for P61N L107C: 1.34 ± 0.084, 2.4 ± 0.077 and 3.92 ± 0.019.
In the case of E43Q, the sfGFP reporter fluorescence in series [1] is 0.0614 ± 0.0018; in series [2] (ligand: 1 µM Pb) it was 0.076 ± 0.0029; in series [2] (ligand: 30 µM Zn), 1.16 ± 0.18.
Consider E43H, for which the values for the sfGFP reporter fluorescence in series [1], in series [2] (ligand: 1 µM Pb) and in series [2] (ligand: 30 µM Zn) were 0.0669 ± 0.00078, 0.0891 ± 0.013 and 0.629 ± 0.0098, respectively.
For the variant E43R, the figures for the sfGFP reporter fluorescence in series [1], in series [2] (ligand: 1 µM Pb) and in series [2] (ligand: 30 µM Zn) were 0.0643 ± 0.00078, 0.111 ± 0.025 and 2.24 ± 0.12, respectively.
For I90T, in that order: 0.0608 ± 0.0021, 0.07953 ± 0.00052 and 0.595 ± 0.007.
For P61I, in that order: 0.0553 ± 0.0067, 0.06414 ± 0.00052 and 0.112 ± 0.00026.
Turning to C55R, the sfGFP reporter fluorescence in series [1] was 0.0596 ± 0.0018; in series [2] (ligand: 1 µM Pb), 0.0592 ± 0.0013; in series [2] (ligand: 30 µM Zn), 0.0572.
The matching figures for E112Y: 0.05919 ± 0.00026, 0.06395 ± 0.00026 and 0.198 ± 0.028.
Regarding R74A, the sfGFP reporter fluorescence is 0.0596 ± 0.0013 in series [1], 0.0669 ± 0.0065 in series [2] (ligand: 1 µM Pb) and 0.369 ± 0.079 in series [2] (ligand: 30 µM Zn).
For C114Q, in that order: 0.0568 ± 0.001, 0.05864 ± 0.00052 and 0.0533 ± 0.0018.
Regarding C114T, the sfGFP reporter fluorescence was 0.0583 ± 0.0015 in series [1], 0.05864 ± 0.00052 in series [2] (ligand: 1 µM Pb) and 0.0544 ± 0.0039 in series [2] (ligand: 30 µM Zn).
Take E94T: the figures for the sfGFP reporter fluorescence in series [1], in series [2] (ligand: 1 µM Pb) and in series [2] (ligand: 30 µM Zn) were 0.0673 ± 0.0029, 0.108 ± 0.03 and 1.27 ± 0.29, respectively.
For E94Q, in that order: 0.0632 ± 0.0013, 0.0856 ± 0.008 and 1.02 ± 0.07.
For E94C, the sfGFP reporter fluorescence in series [1] is 0.0645 ± 0.0021; in series [2] (ligand: 1 µM Pb) it was 0.115 ± 0.011; in series [2] (ligand: 30 µM Zn), 0.946 ± 0.18.
The matching figures for R33Q: 0.0623 ± 0.001, 0.0612 ± 0.001 and 0.0711 ± 0.0026.
In the case of Y22W, the sfGFP reporter fluorescence in series [1] was determined as 0.0658 ± 0.0029; in series [2] (ligand: 1 µM Pb), 0.142 ± 0.00026; in series [2] (ligand: 30 µM Zn) it was 2.1 ± 0.13.
Regarding Y22N, the sfGFP reporter fluorescence in series [1] turned out to be 0.0619 ± 0.0031; in series [2] (ligand: 1 µM Pb), 0.0607 ± 0.0029; in series [2] (ligand: 30 µM Zn), 0.0614 ± 0.0023.
Take Y41M: the figures for the sfGFP reporter fluorescence in series [1], in series [2] (ligand: 1 µM Pb) and in series [2] (ligand: 30 µM Zn) were 0.0629 ± 0.00078, 0.0596 ± 0.0023 and 0.113 ± 0.0078, respectively.
The matching figures for Y41S: 0.0603 ± 0.00078, 0.0612 ± 0.0021 and 0.0616 ± 0.0015.
The matching figures for E109G: 0.05644 ± 0.00052, 0.0695 ± 0.0013 and 0.793 ± 0.063.
Turning to E109T, the values for the sfGFP reporter fluorescence in series [1], in series [2] (ligand: 1 µM Pb) and in series [2] (ligand: 30 µM Zn) were 0.0625 ± 0.0018, 0.0935 ± 0.0026 and 1.71 ± 0.12, respectively.
For E109C, in that order: 0.0596 ± 0.00078, 0.0867 ± 0.0054 and 1.54 ± 0.077.
As to E109N, the sfGFP reporter fluorescence came out at 0.05974 ± 0.00052 in series [1], 0.0845 ± 0.0044 in series [2] (ligand: 1 µM Pb) and 1.47 ± 0.018 in series [2] (ligand: 30 µM Zn).
Turning to F21S, the sfGFP reporter fluorescence is 0.06341 ± 0.00052 in series [1], 0.0608 ± 0.001 in series [2] (ligand: 1 µM Pb) and 0.06304 ± 0.00052 in series [2] (ligand: 30 µM Zn).
On to F21A, for which the sfGFP reporter fluorescence was found to be 0.059 in series [1], 0.0541 ± 0.0013 in series [2] (ligand: 1 µM Pb) and 0.0673 ± 0.0013 in series [2] (ligand: 30 µM Zn).
The matching figures for I3W: 0.05919 ± 0.00026, 0.0766 ± 0.001 and 0.957 ± 0.056.
The matching figures for I3D: 0.06139 ± 0.00026, 0.06011 ± 0.00052 and 0.08118 ± 0.00078.
Consider I3P, for which the sfGFP reporter fluorescence in series [1] stood at 0.0592 ± 0.0018; in series [2] (ligand: 1 µM Pb) it was 0.0583 ± 0.0036; in series [2] (ligand: 30 µM Zn), 0.0546 ± 0.0026.
Take C79K: the values for the sfGFP reporter fluorescence in series [1], in series [2] (ligand: 1 µM Pb) and in series [2] (ligand: 30 µM Zn) were 0.06011 ± 0.00052, 0.0614 ± 0.00078 and 0.0548 ± 0.00078, respectively.
In the case of M60T, the sfGFP reporter fluorescence was determined as 0.0601 ± 0.001 in series [1], 0.0621 ± 0.00078 in series [2] (ligand: 1 µM Pb) and 0.0645 ± 0.001 in series [2] (ligand: 30 µM Zn).
